* marks the point of attachment. Palmitoyl = CCCCCCCCCCCCCCCC(=O)*; Myristoyl = CCCCCCCCCCCCCC(=O)*; Lauroyl = CCCCCCCCCCCC(=O)*; Decanoyl = CCCCCCCCCC(=O)*; Octanoyl = CCCCCCCC(=O)*
Columns and labels:
[1] = biological target: T1, FZD7 receptor of HEK293-TB cells (human, UniProt O75084 33-574); assay: cell-based or functional assay
[2] = biological target: T1, FZD7 receptor of HEK293-TB cells; assay: cell-based or functional assay; remark: listed apart in the source

Binder | Best Fit IC50 (nM), Wnt3a-mediated β-catenin signaling in HEK293-TB cells (50 ng/mL mWnt3a) [1] | IC50 (nM), TOPbrite reporter assay in HEK293-TB cells stimulated with mWnt3a (50 ng/mL) [2] | Reduction in fold potency vs. dimer [2]
Ac-SDDLEFWCHVK(Octanoyl)Y-NH2 (also: dimer via disulfide bond at Cys8) [dFz7-21Δ2.M13K (C8)] | 2130 nM | – | –
Ac-SDDLEFWCHVK(Palmitoyl)Y-NH2 (also: dimer via disulfide bond at Cys8) [dFz7-21Δ2.M13K (C16)] | 607 nM | – | –
Ac-SDDLEFWCHVK(Lauroyl)Y-NH2 (also: dimer via disulfide bond at Cys8) [dFz7-21Δ2.M13K (C12)] | 553 nM | – | –
Ac-LPSDDLEFWCHVAY-NH2 (also: homodimer via Cys10 disulfide) [dFz7-21-M13A] | – | 913 nM | 82 fold
Ac-SDDLEFWCHVK(Myristoyl)Y-NH2 (also: dimer via disulfide bond at Cys8) [dFz7-21Δ2.M13K (C14)] | 607 nM | – | –
Ac-LPSDDAEFWCHVMY-NH2 (also: homodimer via Cys10 disulfide) [dFz7-21-L6A] | – | 7120 nM | 642 fold
Ac-LPSDDLEFWCHVMA-NH2 (also: homodimer via Cys10 disulfide) [dFz7-21-Y14A] | – | 2960 nM | 267 fold
Ac-SDDLEFWCHVK(Decanoyl)Y-NH2 (also: dimer via disulfide bond at Cys8) [dFz7-21Δ2.M13K (C10)] | 1500 nM | – | –
Ac-LPSDDLEFACHVMY-NH2 (also: homodimer via Cys10 disulfide) [dFz7-21-W9A] | – | 640 nM | 58 fold
